US20220315648A1 (AC IMMUNE, published 2022)
Changes are numbered by the printed parent chain. One block for each binder: values may come before it. No end group written: not given here. *: point of attachment. Biotin = O=C1N[C@H]2[C@H](CS[C@H]2CCCCC(=O)*)N1

Assays:
TP-48 = target: T1, TP-48 (human); experiment: indirect ELISA on TDP-43 peptides, antibody at 1 µg/ml
T1 construct: 23 residues
T1 peptide: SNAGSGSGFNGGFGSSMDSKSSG

[1] = target: T2, human full length TDP-43 (FL TDP-43), recombinant, soluble (human, UniProt Q13148 1-414); experiment: Luminex, beads conjugated to FL TDP-43, antibody serial dilution
T2 construct: Antigen of Luminex, ELISA and SPR (soluble form); also called TDP-43 protein; Soluble TDP-43
Protocol: Mice were euthanized and fusion with myeloma cells was performed using splenocytes from four individual mice. Screening for antibodies from the successfully fused hybridoma cell lines were performed as follows. Diluted (1:32) cell culture supernatants were analyzed using Luminex bead-based multiplex assay (Luminex, The Netherlands). Luminex beads were conjugated to FL TDP-43 and with capturing IgGs with anti-mouse IgG-Fc antibodies specific for the IgG1, IgG2a, IgG2b, IgG2c, and IgG3 subclasses (Jackson Immunoresearch, USA). Binding to beads conjugated to FL TDP-43 identified 386 hits derived from mice immunized with the FL TDP-43 liposomal vaccine.
Luminex assays with serial dilution of antibodies were performed as described before to determine half maximal effective concentration (EC50) of binding of antibodies to FL TDP-43. In summary, all tested antibodies bind to full length TDP-43 with high affinity.

TP-23 = target: T3, TP-23 (human); experiment: indirect ELISA on TDP-43 peptides, antibody at 1 µg/ml
T3 peptide: Biotin-TEDMTEDELREFFSQ

TDP-6 = target: T4, TDP-6 (human); experiment: as above
T4 construct: One of the 40-66 aa linear peptides; also called TDP-43 peptide 140-200
T4 peptide: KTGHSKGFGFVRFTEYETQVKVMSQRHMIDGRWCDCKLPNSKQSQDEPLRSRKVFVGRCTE

TP-21 = target: T5, TP-21 (human); experiment: as above
T5 peptide: Biotin-KQSQDEPLRSRKVFV

TP-40 = target: T6, TP-40 (human); experiment: as above
T6 peptide: Biotin-NNQNQGNMQREPNQA

T2 sequence (Q13148 whole entry): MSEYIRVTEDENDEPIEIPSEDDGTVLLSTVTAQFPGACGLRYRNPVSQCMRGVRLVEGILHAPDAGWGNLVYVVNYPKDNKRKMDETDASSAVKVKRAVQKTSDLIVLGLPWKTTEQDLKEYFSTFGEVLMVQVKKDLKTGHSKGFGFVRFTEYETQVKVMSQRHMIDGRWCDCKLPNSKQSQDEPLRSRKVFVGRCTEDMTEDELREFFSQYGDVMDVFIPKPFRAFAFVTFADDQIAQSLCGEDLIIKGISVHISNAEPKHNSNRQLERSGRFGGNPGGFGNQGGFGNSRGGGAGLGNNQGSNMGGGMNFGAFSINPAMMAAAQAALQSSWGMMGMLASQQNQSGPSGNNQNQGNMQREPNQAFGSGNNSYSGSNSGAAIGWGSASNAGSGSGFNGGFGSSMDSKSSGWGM

binding result (TP-48): binds
B1: ACI-7069-642A10-Ab1 (antibody, IgG1, V domains shown)
VH: QVQLQQPGAELVKPGASVKLSCKASGYTFTKYWMHWVKQRPGQGLEWIGEINPSNGRTNYNEKFKSKATLTVDKSSSTAYMQLSSLTSEDSAVYYCARYMDYWGQGTSVTVSS
VL: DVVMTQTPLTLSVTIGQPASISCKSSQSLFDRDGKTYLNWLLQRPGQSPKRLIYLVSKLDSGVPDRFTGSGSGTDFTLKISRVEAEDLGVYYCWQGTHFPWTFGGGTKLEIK
notes: also called 642A10B11

EC50 [1]: < 10 µM
binding result (TP-23): binds
B2: ACI-7071-809D9-Ab2 (antibody, IgG2b, V domains shown)
VH: QVQLQQSGAELVRPGVSVKISCKGSGYKFTDYSMHWVKQSHTKSLEWIGVISTYYGDTTYNQKFKGKATITVDKSSSTAYMELARLTSEDSAIYYCATYGNFPASFSYWGQGTLVTVSA
VL: DIVMTQAAPSIPVTPGESVSISCRSSKSLLHSNGNTYLYWFLQRPGQSPQLLIYRMSNLASGVPDRFSGSGSGTAFTLRISRVEAEDVGVYYCMQHLEYPFTFGSGTKLEIK
notes: also called 809D9C2

EC50 [1]: < 10 µM
binding result (TDP-6): binds
B3: ACI-7069-634H10-Ab2 (antibody, IgG2b, V domains shown)
VH: EVQLQQSGAELVKPGASVRLSCTASGFNIKDTYMHWVKQRPEQGLEWIGRIDPANSNTKFDPKFQGKATITSDTSSNTAYLQLSSLTSEDTAVYYCARFYGGSHWYFDVWGAGTTVTVSS
VL: DIKMTQSPSSMYASLGERVTITCKASQDIKSYLSWYQHKPWKSPKALIYYATSLADGVPSRFSGSGSGQDYSLTISSLESDDTATYYCLQQGESPYTFGGGTKLEIK
notes: also called 634H10H7

EC50 [1]: < 10 µM
binding result (TP-21): binds
B4: ACI-7069-642D12-Ab1 (antibody, IgG2b, V domains shown)
VH: EVQLQQSGAELVKPGASVRLSCTASGFNIKDPYMHWVRQRPKQGLEWIGRIDPADGNTKYDPKFQGKATLTADTSSNVAYLHLSSLTSEDTAVYYCARFYGSSHWYFDVWGAGTTVTVSS
VL: B3 VL with S31R, H38Q, A46I, S65T, T83V
notes: also called 642D12B4

EC50 [1]: < 10 µM
binding result (TP-23): binds
B5: ACI-7071-809F12-Ab1 (antibody, IgG2b, V domains shown)
VH: QVQLKESGPGLVAPSQSLSITCTVSGFSLNRNGVQWVRQPPGKGLEWLGVIWPGGSTNCNSALMSRLSISKDNSKSQVFLKMNSLHTDDTGIYYCARVGGNYVWDYNNYAWGQGTLVTVSA
VL: DVLMTQTPLSLPVSLGDQASISCRSSQNIVHSIGNTYLEWYLQKPGQSPKLLIYKVSNRFSGVPDRFSGSGSGTDFTLKISRVEAEDLGVYYCFQGSHVPYTFGGGTKLEIR
notes: also called 809F12D8

EC50 [1]: < 10 µM
binding result (TP-23): binds
B6: ACI-7069-641H1-Ab2 (antibody, IgG2b, V domains shown)
VH: QVQLKESGPGLVAPSQSLSITCTVSGFSLTNYGVHWVRQPPGKGLEWLGLMWAGGSTNYNSALMSRLSISKDNSKSQVFLKMNSLQTDDTAMYYCVIYRTGFAYWGQGTLVTVSA
VL: B5 VL with N28S, S32T, Y101F, G105S, R112K
notes: also called 641H1E7

EC50 [1]: < 10 µM
binding result (TP-23): binds
B7: ACI-7069-646B7-Ab1 (antibody, IgG2b, V domains shown)
VH: B6 VH with Y32F, L50I, R99K
VL: B5 VL with N28S, S32A, Y101F, G105S, R112K
notes: also called 646B7F7

EC50 [1]: < 10 µM
B8: ACI-7069-633B12-Ab1 (antibody, IgG2b, V domains shown)
VH: EVQLQQSGPELVKPGASVKISCKTSGFTFTEYSMHWVKQSHGKSLEWIGGINPNNGGTSYNQKFKGKATLTVDKSSSTAYMELRSLTSEDSAVYYCARESWGQGTTLTVSS
VL: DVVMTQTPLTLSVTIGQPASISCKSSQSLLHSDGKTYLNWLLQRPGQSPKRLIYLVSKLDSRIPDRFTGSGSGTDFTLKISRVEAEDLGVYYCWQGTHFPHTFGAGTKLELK
notes: also called 633B12C8

EC50 [1]: < 10 µM
B9: ACI-7069-631B2-Ab1 (antibody, IgG1, V domains shown)
VH: B8 VH with F27Y, M34I, K43E, N54D, S59R, E82D
VL: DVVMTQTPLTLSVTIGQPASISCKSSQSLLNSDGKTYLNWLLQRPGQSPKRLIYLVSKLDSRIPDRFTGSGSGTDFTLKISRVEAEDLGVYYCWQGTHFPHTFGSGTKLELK
notes: also called 631B2A2

EC50 [1]: < 10 µM
binding result (TP-40): binds
B10: ACI-7069-636E5-Ab1 (antibody, IgG2b, V domains shown)
VH: EVHLVESGGDLVMPGGSLKLSCAASGFTFSNYGMSWVRQTPDKRLEWVATISSGGKYINYLDSLKGRFTISRDNAKNTLYLQMSSLKSEDTAMYYCAKDYGSGWAWFAYWGQGTLVTVSA
VL: QLVLTQSSSASFSLGASAKLTCTLSSQHSTYTIEWYQQQPLKPPKYVMELKKDGSHSTGDGIPDRFSGSSSGADRYLSISNIQPEDEAIYICGVGDTIKEQFVYVFGGGTKVTVL
notes: also called 636E5B8

EC50 [1]: 180 µM
B11: ACI-7071-712A6-Ab1 (antibody, IgG2c, V domains shown)
VH: QVQLQQSGAELVKPGTSVKLSCKASAYTFTEYTIHWIKQKSGQGLEWIGWFHPENDNIKYNENFKDKATLTADRSSSTVYMELSRLTSEDSAVYFCAGTSGYGDYWGQGTTLTVSS
VL: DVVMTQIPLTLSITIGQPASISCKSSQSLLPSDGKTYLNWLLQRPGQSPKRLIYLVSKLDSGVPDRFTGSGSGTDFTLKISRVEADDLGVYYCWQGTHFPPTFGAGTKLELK
notes: Mouse hybridoma antibody, IgG2c; also called 712A6B10
